From the DeepSol protein solubility set

experiment: soluble on expression in E. coli; label from the status in PepcDB or PDB records

| Sequence | soluble on expression in E. coli |
| --- | --- |
| MAHHHHHHMLRCSMLRRSMGPGASYVNTVFDTVAKRYDLMNDLLSLGIHRRWKQHFVNDYVRPCPGGKFLDVAGGTGDIAFRIIDGVRLKEEVFGLVPTLRYLTEVVVLDANENMIREGEARAAREGYLDVKWVIGKGEELPFDDMSFDSYTVSFGIRNFSDRPKALREAYRVLKVGGVLNVLEFSKVTCPFLSLPYDVWSYGFIPMAGQILVDRESYQYLVDSIRAFPDQEEFAKMISDAGFGYVRYENLTGGIACIHTAVKTEAVRVKPEKSPLESVATKAKEEKNSVDDEQLNPA | not soluble |
| MDAELFPRSRAQVAPDAVHVPDWADAGRQRRFLAACRDWARPPAGLRTVHTPGGGTMTSRQVCLGWHWYPYGYARTVVDGDGAPVKPLPDWLAELGRDAVSDALGPQAVPPVPYDIALINFYGADARMGMHRDSDEKSGAPVVSLSVGDTCVFRFGNARTRTRPYTDVELRSGDLFVFGGASRLAYHGVPRVYADTAPPELGLVGRLNITLRVSGFQDPSGE | not soluble |
| SDQEEGLKALDNIVTQFNAYEDFLDSQITTVDLYYLEDETLARQLVELGYRGTGERVKREDFEARKAAIEIARLAERAQQKTLTSAGKDLQDNFLTALAMREEDNRSGKLSSVIFIRDRNSHGQEISGYIDYAHRLKTEDFEVYFTGKKRLLPRPTDISFYNWDADIAVSNSSPNYQVIADNPEGLLFRYKRDRKILNVDPKAQPGDNSTRITILTELYIQAVIFDHISRRKT | soluble |
| MAHHHHHHMQFVVVDGSWPVVPCAIPRSQLLARSVKDTDHGEDGGGQSVLPGHALFTLCQEVLDTSASKTKAPPELATLDMTFLRDPQSGPLGALRLYTFKSVSHQFFAVEDLVSSGCLIVFTSHWASLTSAALLTGVRTTHKEKDDSAKSSRRRIENNTGSGTREVSASRASSLMGRGRSVLQKFSRAETYFTSVASATQRDFEMVNELLLSGTIRMNAHLESFLCSVCGNLPRRTMTTSCCGAVVCLLCAPTLSSSSVLREEVVCAVCGEMPLTNPEAHVSRDAEVMRLVRELRVLYHPQVSAAACRAMPGETQPPPTPFNVHHAGLPVPICDMNEPTGSVLGSVFMGPS | not soluble |
| MNIEQQLYDVVKQLIEQRYPNDWGGAAAIRVEDGTIYTSVAPDVINASTELCMETGAILEAHKFQKKVTHSICLARENEHSELKVLSPCGVCQERLFYWGPEVQCAITNAKQDIIFKPLKELQPYHWTEAYHDEMVKEWSTR | soluble |
| MENQAALCVLLSDRANTHAHIFVHPHFLSFTLTKSCFCCGNLIYWFVTLYLNFRSRKKSEKMRSRSGSGVRLDRILFMVEQTICSHQNPITALFANQKDFPGHAWVRDNVYIAQALWALYRAYMKCADFDEDLTKAKELGFTCVKMMQSILECLMRQAEKVELFKKYQRPLDALHSKFAVGTKGTVCGDADWGHLQMDAISLYLLTLAQITASGLQVVRNFDEVAFIQNLVYYIETGYRTPDYGVWERGDKTNQGIRELNASSIGMVKAALQALNDVGDLFVDGSRGSVVHVLPDEIEQCSAVLSSMLPRESFSKETDAALLGIISYPAFCVEDPELVSQTRETITQRLLGKYGCRRFMRDGYKTVLEDASRLYYNKSELQQFEDIECEWPIFLCYLILDAMYSKDDDAVEAYWRQLESVLVLSDKGFRLVPELYVVLKEHVSAEKAHPGTQDRVPGGATPFLWAQSLYVIICLLYEGFLLPAELDPLSRRLSVYEKRPPCEVQVTVLAESLDVQRELRAHDIHVQCVDEIDPVFTILPASALGQLLAKIGESKKLNLSGRPLDRPIGLLSTSRLYQIGNKFVIFTPQFMDSRRSHLMYDIRILTDEWSSELQYIYASWNSVSISGRPLVVLVITQGMLSTEGLSHFSNIHLNRHMKSTVIGAIKKINTGYLSGARVVMKDLSDFFRTTAVSKMEFRDKSAEDTLRSVAAEKVQFTLLTEDATEAKNEKITTPRGPRTLRRGESVKDRSAYTAVHKASMRHRSIALDSNDADLMKLRLAYKSRPRDLQDMDSTYQSPPPTQTPLGLVKEHSSGELRQQLLKTTRRGAENETTHRDLTAEQMNEMKADDLLDLVNETTVLEEQISIVHCLWMKFGPDYDTELGCQHITVRMLMEEVHTKACEAREWALVRLTAGLLKKQLEEPQQSCYSSFVSPFELKSMIFSLLSGRLLEEYAEDGIHYSDTIRETRTGIGSFRRQIEERKSLRKSTRSVGGLEIPKEEDEDEEADEDDFQFGIWLRHRRIDGALNRVPNGFYAILWDTVHKMPHGVKINDTVLHWGLTQEMTRKEIKFALESEEALNRIAEPEYRELVVETLWLLGRLEKLVLLEQPNIPRDRPLDVDHILHVANQIFVDHNKHLETIVMECCASSNPNNTRCDGARNICKHFYDSAPAGEYGTSHYIIRALMQLYS | not soluble |
| MSATETITTNARVLGADPLVKDGFGEEDMLTLVLPYIKTAREGVLRLGELLETYGTYESNGIAFADTEEIWWLKTIGGHNWIARRVPDDAYVTNPNQLGIDHYEFENPDDYLASPDIRDFINKHHLDLTYSNEHFNPRYAFGSQRDKDHHYNTPRARAM | soluble |
| MSLNCERVWLNVTPATLRSDLADYGLLEPHALGVHEGRIHALVPMQDLKGPYPAHWQDMKGKLVTPGLIDCHTHLIFAGSRAEEFELRQKGVPYAEIARKGGGIISTVRATRAASEDQLFELALPRVKSLIREGVTTVEIKSGYGLTLEDELKMLRVARRLGEALPIRVKTTLLAAHAVPPEYRDDPDSWVETICQEIIPAAAEAGLADAVDVFCEHIGFSLAQTEQVYLAADQYGLAVKGHMDQLSNLGGSTLAANFGALSVDHLEYLDPEGIQALAHRGVVATLLPTAFYFLKETKLPPVVALRKAGVPMAVSSDINPGTAPIVSLRMAMNMACTLFGLTPVEAMAGVTRHAARALGEQEQLGQLRVGMLADFLVWNCGHPAELSYLIGVDQLVSRVVNGEETLHGEGHHHHHH | soluble |
| APPSSFSAAKQQAVKIYQDHPISFYCGCDIEWQGKKGIPNLETCGYQVRKQQTRASRIEWEAVVPAWQFGHHRQCWQKGGRKNCSKNDQQFRLMEADLHNLTPAIGEVNGDRSNFNFSQWNGVDGVSYGRCEMQVNFKQRKVMPPDRARGSIARTYLYMSQEYGFQLSKQQQQLMQAWNKSYPVDEWECTRDDRIAKIQGNHNPFVQQSCQTQ | soluble |
| MGSDKIHHHHHHMSLEGLSINFATVRQGGNFGAIVDACLAHGITAISPWREQVHGVGLAEAARIVEQNGLRLSGHCRGGFFPAIDADGRRRAIEDNKRAVDEAAAMKADCLVLVVGGLPAGSRDLKGARQMVEDGMAKLLPYARAAGVPLAIEPLHPFYAAERACFNTLKQSLDLCDRLGAGTGVAIDVYHVWWDPELEEQVARAGRNGQILAHHICDWLVPTTDPLNDRGMMGDGVIDLKAFRAMIEAAGFHGPQEVEIFSHRWQARPMDEVLATVVERFKTVC | not soluble |
| MSLNPRLFSPHIIRSLLDLDAYKINMMQAIHHFYPDVSVRYELIVRSEEDASGLLDAIRQEIAHLGTLRFSDADIHYLTQHAPHLKATFLQSLRYFHFVPQEQVEMGIVKQGGKQQLRISIRGSWRDTILYETLVMAIVSEVRSRQRWAEVPADLPLKVLKTKLDQLKAEIERRGINNFSLTEMGTRRRFSSQVQRDVLACLKQEIPQWVLGTSNYHFAREFDLKPIGTIAHEWFMGHQALVNERDSQQVALERWLTAFDGMLAIAPTDTLTIDAFLNDFNRHLANAYDGVRHDSGCPFRWGDKMIAHYQQLGIDPTTKLFIFSDGLDFDQALELCEYFAGRVKISFGIGTFLTNDLANWRNAAGVEYRPLSIVIKLAECQGRPVAKISDQPEKAMCEDPIFLANLKRRFNIELDVDALIQELRHQKRSPRHYISAAEGHHHHHH | soluble |
| MIPPEIRRSVLLQKAIKLALAGTLLTFASFSATAADPSSDTETPQPPDILLGPLFNDVQNAKLFPDQKTFADAIPNSDPLMILADYRMQRNQSGFDLRHFVDVNFTLPKAGEKYVPPAGQSLREHIDGLWPVLTRSTKNVEKWDSLLPLPESYVVPGGRFREIYYWDSYFTMLGLAESGHWDKVADMVANFGYEIDAWGHIPNGNRTYYLSRSQPPFFAFMVELLAQHEGDDALKEYLPQLQKEYAYWMEGVETLQPGQQNQRVVKLEDGSVLNRYWDDRDTPRPESWVEDIATAKSNPNRPATEIYRDLRSAAASGWDFSSRWMDNPQQLSTIRTTTIVPVDLNALLYQLEKTLARASAAAGDRAKASQYDALANARQKAIEMHLWNNKEGWYADYDLQNNKIRDQLTAAALFPLYVNAAAKDRAVKVAAAAQAHLLQPGGLATTSVKSGQQWDAPNGWAPLQWVAAEGLQNYGQDDVAMEVTWRFLTNVQHTYDREKKLVEKYDVSSTGTGGGGGEYPLQDGFGWTNGVTLKMLDLICPQEKPCDSVPSTRPASLSATPTKTPSAATQLEHHHHHH | not soluble |
